From patent US20250090876A1 (MEDICAL COLLEGE OF WISCONSIN, published 2025)

Assays:
mouse CLPTM1L protein = target: T1, mouse CLPTM1L protein (mouse, UniProt Q8BXA5 1-539); test: flow cytometry on live ID8-luc mouse ovarian tumor cells (102-5 primary by the legend of FIG. 31A)
T1 construct: whole, on cells; also called the mouse protein
T1 sequence (looked up): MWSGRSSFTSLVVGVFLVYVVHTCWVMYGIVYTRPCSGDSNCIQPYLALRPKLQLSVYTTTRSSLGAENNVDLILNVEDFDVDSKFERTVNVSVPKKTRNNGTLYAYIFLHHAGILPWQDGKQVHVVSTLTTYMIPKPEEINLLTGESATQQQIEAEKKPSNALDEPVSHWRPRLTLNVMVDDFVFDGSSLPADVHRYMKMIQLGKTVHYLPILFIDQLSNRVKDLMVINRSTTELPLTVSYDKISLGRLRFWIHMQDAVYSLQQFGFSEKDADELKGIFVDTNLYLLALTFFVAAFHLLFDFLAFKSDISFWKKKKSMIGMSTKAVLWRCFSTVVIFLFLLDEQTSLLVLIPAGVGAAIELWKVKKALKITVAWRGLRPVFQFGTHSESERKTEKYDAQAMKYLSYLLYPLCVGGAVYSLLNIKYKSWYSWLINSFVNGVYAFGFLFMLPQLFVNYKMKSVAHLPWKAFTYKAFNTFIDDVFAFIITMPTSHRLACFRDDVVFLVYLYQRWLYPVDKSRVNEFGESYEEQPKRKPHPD
Method: (E) Final relative mean volumes of SL3 and SL3cis xenograft tumors 24 days post-inoculation. […] (F) Mean volumes of SL3 and SL3cis xenograft tumors relative to group mean volume after sorting from days 0 to 24 post-inoculation. *p<0.05, **p<0.005, ***p<0.0005. Error bars represent standard error of the mean.
Flow cytometry was conducted per AbCam protocol for indirect flow cytometry. Tumor cells were harvested by trypsinization and suspended in cold PBS, 10% FBS, 0.05% NaN₃. 100 μL of cell suspension was added to 12×75 mm polystyrene tubes. 10 μg/mL of primary antibody diluted in PBS 3% BSA was added and tubes were incubated at 4° C. in the dark for 45 minutes. After washing 3 times in cold PBS, cells were resuspended in rabbit anti-Human Fc (H&L)-Alexafluor 488 (Abcam) in PBS 3% BSA and incubated at 4 C in the dark for 30 minutes. After washing 3 times in cold PBS, cells were suspended in 500 μL cold PBS, 3% BSA, 0.05% NaN₃ and analyzed on an Accuri C6 flow cytometer. Cells were gated for live cells based on scatter and fluorescence was plotted on a histogram using Flowing Software 2 (Turku Bioimaging).

[1] = target: T2, human CLPTM1L/CRR9 protein (human, UniProt Q96KA5 1-538); test: on-cell detection of fluorescently labeled 102-5 on live Panc1 tumor cells, with or without competitors (excess 10-2 mouse ascites or excess purified CRR9 ectodomain)
T2 construct: also called Cisplatin Resistance Related Protein-9; Cleft-Lip and Palate Transmembrane Protein-Like Protein 1
T2 sequence: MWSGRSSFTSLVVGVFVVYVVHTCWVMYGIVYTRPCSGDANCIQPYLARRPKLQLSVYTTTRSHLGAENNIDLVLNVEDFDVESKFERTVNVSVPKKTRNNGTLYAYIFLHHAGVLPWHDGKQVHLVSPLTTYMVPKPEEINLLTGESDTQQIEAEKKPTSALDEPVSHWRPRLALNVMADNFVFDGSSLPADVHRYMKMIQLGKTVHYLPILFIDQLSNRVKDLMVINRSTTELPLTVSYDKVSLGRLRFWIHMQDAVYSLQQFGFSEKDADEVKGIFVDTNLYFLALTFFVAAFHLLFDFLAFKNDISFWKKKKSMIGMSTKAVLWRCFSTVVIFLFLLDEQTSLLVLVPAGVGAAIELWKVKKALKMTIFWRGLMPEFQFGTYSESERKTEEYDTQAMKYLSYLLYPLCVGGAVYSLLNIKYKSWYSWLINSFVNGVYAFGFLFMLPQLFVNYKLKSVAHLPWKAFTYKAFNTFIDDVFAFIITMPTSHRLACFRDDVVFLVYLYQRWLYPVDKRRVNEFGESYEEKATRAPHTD

purified CRR9 ectodomain = target: T3, purified CRR9 ectodomain (human, UniProt Q5R7B1 32-284 (Pongo abelii entry), limits assumed); test: ELISA with purified CRR9 ectodomain
T3 construct: also called CLPTM1L ectodomain
T3 sequence: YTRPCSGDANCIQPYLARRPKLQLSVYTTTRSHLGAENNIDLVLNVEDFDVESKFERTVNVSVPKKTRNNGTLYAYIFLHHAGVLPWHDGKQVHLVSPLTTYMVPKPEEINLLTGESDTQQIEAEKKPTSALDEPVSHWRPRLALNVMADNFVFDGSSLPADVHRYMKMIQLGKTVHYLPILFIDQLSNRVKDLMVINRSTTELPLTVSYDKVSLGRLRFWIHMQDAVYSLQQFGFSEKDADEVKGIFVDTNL

binding result (mouse CLPTM1L protein): binds
binding result [1]: binds
Kd (purified CRR9 ectodomain): 1 nM
B1: 102-5 full-length human IgG1 anti-CLPTM1L (antibody, V domains shown)
VH: EVQLLESGGGLVQPGGSLRLSCAASGFSFSSYEMNWVRQAPGKGPEWISYISSGGGTIYYADSVRGRFTISRDNSNNTLYLQMNSLRPDDTAIYYCARDRGRKWLQLLFDSWGQGTLVTVSS
VL: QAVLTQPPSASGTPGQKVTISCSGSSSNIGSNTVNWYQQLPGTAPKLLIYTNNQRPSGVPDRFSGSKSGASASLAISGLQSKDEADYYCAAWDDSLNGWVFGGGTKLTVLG
notes: also called ESS102-5
